Changes are numbered by the printed parent chain. In names and notes the source's numbering stands. Several values for one entry are separate records, joined by “and”; a condition that tells them apart may be missing. Identical values can stand only once.

Sequences and labels used below:
B1: G426N: modified GLD: SEQ ID NO: 1 with substitution G426N (protein, listed as Aspergillus terreus)
chain: MLGKLSFLSALSLAVAAPLSNSTSAKYDYIVIGGGTSGLAVANRLSEDPNVNVLILEAGGSVWNNPNVTNVDGYGLAFGSDIDWQYQSVNQPYGGNLSQVLRAGKALGGTSTINGMAYTRAEDVQIDAWETIGNTGWTWKNLFPYYRKSENFTVPTKSQTSLGASYEAGAHGHEGPLDVAFTQIESNNLTTYLNRTFQGMGLPWTEDVNGGKMRGFNLYPSTVNLEEYVREDAARAYYWPYKSRPNLHVLLNTFANRIVWDGEAHDGHITASGVEITSRNGTVRVINAEKEVIVSAGALKSPAILELSGIGNPSVLDKHNIPVKVNLPTVGENLQDQVNSHMDASGNTSISGTKAVSYPDVYDVFGDEAESVAKQIRANLKQYAADTAKANGNIMKAADLERLFEVQYDLIFKGRVPIAEVLNYPNSATSVFAEFWALLPFARGSVHIGSSNPAEFPVINPNYFMLDWDAKSYVAVAKYIRRSFESYPLSSIVKESTPGYDVIPRNASEQSWKEWVFDKNYRSNFHPVGTAAMMPREIGGVVDERLNVYGTTNVRVVDASVLPFQVCGHLVSTLYAVAERAADLIKADAGRR
modifications: SIGNAL (1)..(19)
B2: G426R: modified GLD: SEQ ID NO: 1 with substitution G426R (protein, listed as Aspergillus terreus)
chain: B1 chain with N426R
modifications: SIGNAL (1)..(19)
B3: G426V: modified GLD: SEQ ID NO: 1 with substitution G426V (protein, listed as Aspergillus terreus)
chain: B1 chain with N426V
modifications: SIGNAL (1)..(19)
B4: G426S: modified GLD: SEQ ID NO: 1 with substitution G426S (protein, listed as Aspergillus terreus)
chain: B1 chain with N426S
modifications: SIGNAL (1)..(19)
B5: G426Y: modified GLD: SEQ ID NO: 1 with substitution G426Y (protein, listed as Aspergillus terreus)
chain: B1 chain with N426Y
modifications: SIGNAL (1)..(19)
B6: F432Q: modified GLD: SEQ ID NO: 1 with substitution F432Q (protein, listed as Aspergillus terreus)
chain: B1 chain with N426G, F432Q
modifications: SIGNAL (1)..(19)
B7: G426A: modified GLD: SEQ ID NO: 1 with substitution G426A (protein, listed as Aspergillus terreus)
chain: B1 chain with N426A
modifications: SIGNAL (1)..(19)
B8: F432I: modified GLD: SEQ ID NO: 1 with substitution F432I (protein, listed as Aspergillus terreus)
chain: B1 chain with N426G, F432I
modifications: SIGNAL (1)..(19)
B9: G426C: modified GLD: SEQ ID NO: 1 with substitution G426C (protein, listed as Aspergillus terreus)
chain: B1 chain with N426C
modifications: SIGNAL (1)..(19)
B10: F432M: modified GLD: SEQ ID NO: 1 with substitution F432M (protein, listed as Aspergillus terreus)
chain: B1 chain with N426G, F432M
modifications: SIGNAL (1)..(19)
B11: F432T: modified GLD: SEQ ID NO: 1 with substitution F432T (protein, listed as Aspergillus terreus)
chain: B1 chain with N426G, F432T
modifications: SIGNAL (1)..(19)
B12: F432R: modified GLD: SEQ ID NO: 1 with substitution F432R (protein, listed as Aspergillus terreus)
chain: B1 chain with N426G, F432R
modifications: SIGNAL (1)..(19)
B13: G426T: modified GLD: SEQ ID NO: 1 with substitution G426T (protein, listed as Aspergillus terreus)
chain: B1 chain with N426T
modifications: SIGNAL (1)..(19)
B14: F432V: modified GLD: SEQ ID NO: 1 with substitution F432V (protein, listed as Aspergillus terreus)
chain: B1 chain with N426G, F432V
modifications: SIGNAL (1)..(19)
B15: F432K: modified GLD: SEQ ID NO: 1 with substitution F432K (protein, listed as Aspergillus terreus)
chain: B1 chain with N426G, F432K
modifications: SIGNAL (1)..(19)
B16: G426P: modified GLD: SEQ ID NO: 1 with substitution G426P (protein, listed as Aspergillus terreus)
chain: B1 chain with N426P
modifications: SIGNAL (1)..(19)
B17: G426W: modified GLD: SEQ ID NO: 1 with substitution G426W (protein, listed as Aspergillus terreus)
chain: B1 chain with N426W
modifications: SIGNAL (1)..(19)
B18: V431F: modified GLD: SEQ ID NO: 1 with substitution V431F (protein, listed as Aspergillus terreus)
chain: B1 chain with N426G, V431F
modifications: SIGNAL (1)..(19)

The first series can be described thus: Relative enzymatic activity of GLD (DCIP/1-m-PMS, plate reader, yeast culture supernatant) with 1,10-phenanthroline present. Format: biochemical. The following applies: site-specific mutants, inhibitor final concentration 1 mM. The method, boiled down: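 Yeast transformants grown in YPD, 30° C., 24 h; diluted culture supernatant assayed in phosphate buffer pH 7.0 with D-glucose, DCIP and 1-m-PMS, DCIP absorbance change at 600 nm. Relative activity (%) = activity with 1 mM 1,10-phenanthroline (final, replacing methanol) divided by activity without it.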
Take B1: the “Relative Activity [%] 1,10-Phenanthroline” value worked out at 69.6%.
Regarding B2, the “Relative Activity [%] 1,10-Phenanthroline” value is 71.5%.
B3: the “Relative Activity [%] 1,10-Phenanthroline” value is 90.3%.
Consider B4, for which the “Relative Activity [%] 1,10-Phenanthroline” value came out at 80.9%.
Take B5: the “Relative Activity [%] 1,10-Phenanthroline” value worked out at 61.6%.
As for B6, the “Relative Activity [%] 1,10-Phenanthroline” value is given as 59.3%.
Regarding B7, the “Relative Activity [%] 1,10-Phenanthroline” value amounted to 68.7%.
For B8, the “Relative Activity [%] 1,10-Phenanthroline” value was determined as 91.8%.
As for B9, the “Relative Activity [%] 1,10-Phenanthroline” value came out at 78.0%.
For B10, the “Relative Activity [%] 1,10-Phenanthroline” value was 62.5% and 74.2%.
For the molecule B11, the “Relative Activity [%] 1,10-Phenanthroline” value is recorded as 89.9%.
On to B12, for which the “Relative Activity [%] 1,10-Phenanthroline” value was 86.2% and 94.2%.
Regarding B13, the “Relative Activity [%] 1,10-Phenanthroline” value is given as 88.5%.
Same read-out and setting: under B14 stands 80.2%; under B15, 92.1%.
For the molecule B16, the “Relative Activity [%] 1,10-Phenanthroline” value is 56.1%.
As to B17, the “Relative Activity [%] 1,10-Phenanthroline” value is 61.0%.
B18: the “Relative Activity [%] 1,10-Phenanthroline” value was found to be 82.1%.

The next series is described as follows: Relative enzymatic activity of GLD (DCIP/1-m-PMS, plate reader, yeast culture supernatant) with proflavin hydrochloride present. Format: biochemical. The settings on record: site-specific mutants, inhibitor final concentration 1 mM. The essentials:
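Culture supernatant diluted and mixed with reagent of phosphate buffer pH 7.0, 1.0 M D-glucose, 3 mM DCIP, 3 mM 1-m-PMS and methanol (0.1:1:0.14:0.2:0.06). DCIP absorbance decrease at 600 nm followed; proflavin hydrochloride in methanol replaced methanol at 1 mM final. Activity expressed as % of inhibitor-free blank.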
As to B1, the “Relative Activity [%] Proflavin hydrochloride” value is given as 51.9%.
As for B2, the “Relative Activity [%] Proflavin hydrochloride” value was 43.0%.
As to B3, the “Relative Activity [%] Proflavin hydrochloride” value stood at 59.9%.
B4: the “Relative Activity [%] Proflavin hydrochloride” value came to 58.0%.
On to B5, for which the “Relative Activity [%] Proflavin hydrochloride” value came out at 47.5%.
Still for that read-out and setting: as for B6, the figure is 67.3%.
Turning to B7, the “Relative Activity [%] Proflavin hydrochloride” value came to 51.2%.
For the molecule B8, the “Relative Activity [%] Proflavin hydrochloride” value is 80.9%.
As for B9, the “Relative Activity [%] Proflavin hydrochloride” value amounted to 64.1%.
Turning to B10, the “Relative Activity [%] Proflavin hydrochloride” value is 71.1% and 66.1%.
B11: the “Relative Activity [%] Proflavin hydrochloride” value is 80.2%.
Same read-out and setting: as for B12, the figure is 73.7% and 72.6%; as for B13, 58.4%; as for B14, 70.3%.
With B15, the “Relative Activity [%] Proflavin hydrochloride” value is listed as 79.3%.
For the molecule B16, the “Relative Activity [%] Proflavin hydrochloride” value worked out at 33.3%.
B17: the “Relative Activity [%] Proflavin hydrochloride” value turned out to be 47.8%.
As for B18, the “Relative Activity [%] Proflavin hydrochloride” value was found to be 57.7%.

The values are drawn from patent US8969060B2, “Modified glucose dehydrogenase” (Ikeda Food Research Co., Ltd., priority 2011, dated 2015).
